Reference: US20110289632

System: 3-ketomyristoyl-ACP (enzymatically prepared from ShACP)

Sequence of ShMKS2 (methylketone synthase 2 from Solanum habrochaites f glabratum), recombinant, without the transit peptide, His-tagged (chain, as listed by the source): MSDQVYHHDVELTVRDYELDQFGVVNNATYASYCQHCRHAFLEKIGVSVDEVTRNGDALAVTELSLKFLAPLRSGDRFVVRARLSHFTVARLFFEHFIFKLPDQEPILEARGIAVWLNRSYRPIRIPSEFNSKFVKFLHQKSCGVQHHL

ShMKS2 (methylketone synthase 2 from Solanum habrochaites f glabratum), recombinant, without the transit peptide, His-tagged
amount of 2-tridecanone formed (in vitro thioesterase activity assay, acid and heat treatment, GC-MS): approximately 3-fold higher than levels found in buffer-incubated substrate solution treated with acid and heat
